Results from US20200317768A1 (published 2020).

T1: soluble mouse FcγRII, His-tagged (mouse, UniProt P08101 30-210, limits assumed)
T1 construct: Captured on the chip by an anti-His antibody
T1 sequence (looked up): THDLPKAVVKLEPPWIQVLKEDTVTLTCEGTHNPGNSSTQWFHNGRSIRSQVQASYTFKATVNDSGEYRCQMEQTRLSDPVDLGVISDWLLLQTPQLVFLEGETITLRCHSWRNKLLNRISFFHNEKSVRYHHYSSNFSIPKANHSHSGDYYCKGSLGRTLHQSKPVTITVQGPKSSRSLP

T2: Human latent myostatin (human, UniProt O14793 25-266; O14793 267-375)
T2 construct: also called human myostatin latent form
T2 sequence 1: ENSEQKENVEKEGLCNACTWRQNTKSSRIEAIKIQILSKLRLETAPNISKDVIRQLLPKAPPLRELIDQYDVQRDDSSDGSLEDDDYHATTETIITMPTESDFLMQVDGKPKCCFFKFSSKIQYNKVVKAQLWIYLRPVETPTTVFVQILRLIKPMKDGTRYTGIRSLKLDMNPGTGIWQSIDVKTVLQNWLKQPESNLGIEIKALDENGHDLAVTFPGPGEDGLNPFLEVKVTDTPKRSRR
T2 sequence 2: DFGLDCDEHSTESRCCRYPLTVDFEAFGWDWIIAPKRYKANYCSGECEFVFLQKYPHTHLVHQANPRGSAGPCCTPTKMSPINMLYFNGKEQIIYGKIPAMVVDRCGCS

T3: Cynomolgus monkey latent myostatin (cynomolgus monkey, UniProt Q95J86 25-266; Q95J86 267-375)
T3 construct: Latent form = complex of two propeptides and the mature dimer; also called Cyno latent myostatin
T3 sequence 1: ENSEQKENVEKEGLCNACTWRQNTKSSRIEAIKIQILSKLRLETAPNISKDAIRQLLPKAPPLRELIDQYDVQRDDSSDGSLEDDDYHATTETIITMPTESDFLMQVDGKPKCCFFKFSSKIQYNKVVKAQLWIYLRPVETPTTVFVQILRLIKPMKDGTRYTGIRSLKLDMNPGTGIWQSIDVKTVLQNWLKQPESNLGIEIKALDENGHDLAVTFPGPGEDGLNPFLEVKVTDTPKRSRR
T3 sequence 2: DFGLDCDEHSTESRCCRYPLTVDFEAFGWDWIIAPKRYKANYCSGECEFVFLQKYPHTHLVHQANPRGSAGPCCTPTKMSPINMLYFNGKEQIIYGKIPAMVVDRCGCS

T4: Mouse latent myostatin (mouse, UniProt O08689 26-267; O08689 268-376)
T4 construct: Latent form = complex of two propeptides and the mature dimer
T4 sequence 1: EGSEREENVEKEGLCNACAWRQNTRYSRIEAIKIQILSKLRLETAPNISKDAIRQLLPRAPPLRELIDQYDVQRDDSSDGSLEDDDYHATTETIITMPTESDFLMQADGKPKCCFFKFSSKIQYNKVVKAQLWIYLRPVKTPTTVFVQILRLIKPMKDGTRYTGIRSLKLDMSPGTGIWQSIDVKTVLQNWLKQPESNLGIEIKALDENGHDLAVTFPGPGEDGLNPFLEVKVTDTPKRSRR
T4 sequence 2: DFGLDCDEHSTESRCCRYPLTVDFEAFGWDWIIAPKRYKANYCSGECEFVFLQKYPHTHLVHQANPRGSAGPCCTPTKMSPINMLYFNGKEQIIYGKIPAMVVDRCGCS


What was measured:
[1] = target: T1, soluble mouse FcγRII, His-tagged; experiment: SPR, mouse FcgRII-His captured, antigen-antibody complex injected, pH7.4, 25C
Human latent myostatin = target: T2, Human latent myostatin; experiment: SPR (BIACORE T200) 37C, pH 5.8, antibody captured by ProA/G
Protocol: (§1) ProA/G (Pierce) was immobilized onto all flow cells of a CM4 chip using an amine coupling kit (GE Healthcare). All antibodies and analytes were prepared in ACES pH7.4 or pH5.8 buffer containing 20 mM ACES, 150 mM NaCl, 1.2 mM CaCl₂, 0.05% TWEEN®) 20, 0.005% NaN₃. […] Human, cyno, and mouse latent myostatin was injected at 3.125 to 50 nM prepared by two-fold serial dilution, followed by dissociation. The sensor surface was regenerated each cycle with 10 mM Glycine HCl pH1.5. Binding affinity was determined by processing and fitting the data to a 1:1 binding model using BIACORE® T200 Evaluation software, version 2.0 (GE Healthcare).

[2] = target: T3, Cynomolgus monkey latent myostatin; experiment: as above
Protocol: as §1

Mouse latent myostatin = target: T4, Mouse latent myostatin; experiment: as above
Protocol: as §1

Row | Binder | biacore IC binding [1] | Kd (Human latent myostatin) [nM] | Kd [2] [nM] | Kd (Mouse latent myostatin) [nM]
1 | MS1032LO06-SG1 (M103205H795-SG1/M103202L889-SK1) (antibody, human IgG1, kappa, Anti-latent myostatin antibody) heavy: not shown light: DIVMTQSPATLSLSPGERATLSCTSSQSVYHANWLSWFQQKPGQPPKLLIYWASTLAYGVPSRFSGSGSGTDFTLTISSLQPEDAATYYCAGGYGGGRYAFGQGTKVEIKRTVAAPSVFIFPPSDEQLKSGTASVVCLLNNFYPREAKVQWKVDNALQSGNSQESVTEQDSKDSTYSLSSTLTLSKADYEKHKVYACEVTHQGLSSPVTKSFNRGEC | 1 relative to SG1 (=1.00) | – | – | –
2 | MS_M103205H795-SG1/M103202L889-SK1 (antibody, human IgG1, kappa, also called MS1032LO06-SG1) heavy: not shown light: DIVMTQSPATLSLSPGERATLSCTSSQSVYHANWLSWFQQKPGQPPKLLIYWASTLAYGVPSRFSGSGSGTDFTLTISSLQPEDAATYYCAGGYGGGRYAFGQGTKVEIKRTVAAPSVFIFPPSDEQLKSGTASVVCLLNNFYPREAKVQWKVDNALQSGNSQESVTEQDSKDSTYSLSSTLTLSKADYEKHKVYACEVTHQGLSSPVTKSFNRGEC | – | 34 | 25.9 | 22.6
